Test results taken from the RNAGym collection of RNA variant scans (doi:10.7554/elife.90254).

B1: OR4K15 (parent)
chain: GUUAACGGUCAUAGGCCAUGGAAACUAGGAGCACCAUUUCGCUGCCAGUGAAGAAAUGAACAAAGAAAAUCUGGGCCAGGCAGGCAUCAAAAGAAAUAGUCUUGCGCUCAACCAGAAAGUCUGUAAUCAUUUUAAGGGUA

Variants of: B1
Assay: self-cleavage, relative activity (ratio to wild type); higher = more cleavage; in vitro, sequencing; the parent is a self-cleaving ribozyme

Variant	self-cleavage
GUUAACGGUCAUAGGCCAUGGAAACUAGGAGCACCAUUUCGCUGCCAGUGAAGAAAUGAACAAAGAAAAUCUGGGCCAGGAAGGCAUCAAAAGAAAUAGUCUUGCGCUCAACCAGAAAGUCUGUAAUCAUUCUAAGGGUA	0.29
GUUAACGGUCAUAGGCCAUGGAAGCUAGGAGCACCAUUUCGCUGCCAGUGAAGAAAUGAACAAAGAAAAUCUGGGCCAGGCAGGCAUCCAAAGAAAUAGUCUUGCGCUCAACCAGAAAGUCUGUAAUCAUUUUAAGGGUA	1.51
GUCAACGGUCAUAGGCCAUGGAAACUAGGAGCACCAUUUCGCUGCCAGUGAAGAAAUGAACAAAGAAAAUCUGGGCCAGGCAGGCAUCAAAAGAAAUUGUCUUGCGCUCAACCAGAAAGUCUGUAAUCAUUUUAAGGGUA	2.88
GUUAACGGUCAUAGGCCAUGGAUACUAGGAGCACCAUUUCGCUGCCAGUGAAGAAAUGAACAAAGAAAAUCUGGGCCAGGCAGGCAUCAAAAGAAAUAGUCUUGCGCUCAACCAUAAAGUCUGUAAUCAUUUUAAGGGUA	0.21
GUUAACGGUCAUAGGCCAUGGAAACUAGGAGCACCAUUUCGCUGCCAGUGGAGAAAUGAACAAAGAAAAUCUGGGCCAGGCAGGCAUCAAAAGAAAUAGUCUUGCGCUCAACCAGAUAGUCUGUAAUCAUUUUAAGGGUA	0.52
GUUAACGGUCAUAGGCCAUGGAAACUAGGAGCACCAUUUCGCUGCCAGUGAAGAAAUGAGCAAAGAAAAUCUGGGCCCGGCAGGCAUCAAAAGAAAUAGUCUUGCGCUCAACCAGAAAGUCUGUAAUCAUUUUAAGGGUA	0.17
GUUAACGGUCAUAGGCCAUGGAAACUAGGAGCACCAUUACGCUGCCAGUGAAGAAAUGAACAAAGAAAAUCUGGGCCAGGCAGGCAUCAAAAGAAAUAGUCUUGCGCUCAACCAGAAAGUCUGUGAUCAUUUUAAGGGUA	1.01
GUUAACGGUCAUAGGCCAUGGAAGCUAGGAGCACCAUUUCGCUGCCAGAGAAGAAAUGAACAAAGAAAAUCUGGGCCAGGCAGGCAUCAAAAGAAAUAGUCUUGCGCUCAACCAGAAAGUCUGUAAUCAUUUUAAGGGUA	1.37
GUUAACGGACAUAGGCCAUGGAUACUAGGAGCACCAUUUCGCUGCCAGUGAAGAAAUGAACAAAGAAAAUCUGGGCCAGGCAGGCAUCAAAAGAAAUAGUCUUGCGCUCAACCAGAAAGUCUGUAAUCAUUUUAAGGGUA	1.59
GUUAACAGUCAUAGGCCAUGGUAACUAGGAGCACCAUUUCGCUGCCAGUGAAGAAAUGAACAAAGAAAAUCUGGGCCAGGCAGGCAUCAAAAGAAAUAGUCUUGCGCUCAACCAGAAAGUCUGUAAUCAUUUUAAGGGUA	1.51
GUUAACGGUCAUAGGCCAUGGAAACUAGGAGCACCAUUUCGCUGCCAGUGAAGAAAUGAACAAAGAAAAUCUGGGCCAGGCAGGCAUCAGAAGAAAUAGUCUUGCGCUCAACCAGAAAGUCUGUAAUCAUUUUAAGGGUA	0.95
GUUAACGGUCAUAGGCCAUGGAAACUAGGAGCACCAUUUCGCUGCCAGUGAAGAAAUGAACAAAGAAAAUCUGGGCCAGGCAAGCACCAAAAGAAAUAGUCUUGCGCUCAACCAGAAAGUCUGUAAUCAUUUUAAGGGUA	1.21
GUUAACGGUCAUAGGCCAUGGAAACUAGGAGCACCAUUUCGCUGCCAGUGAAGAAAUGAACAAAGAAAAUCUGGGCCAGGCAGGCAUCAAAAGAAACAGUCUUGCGCUCAACCAGAAAGUCUGCAAUCAUUUUAAGGGUA	0.17
GUUAACGGUCAUAGGCCAUGGAGACUAGGAGCACCAUUUCGCUGCCAGUGAAAAAAUGAACAAAGAAAAUCUGGGCCAGGCAGGCAUCAAAAGAAAUAGUCUUGCGCUCAACCAGAAAGUCUGUAAUCAUUUUAAGGGUA	1.7
GUUAACGGUCAUAGGCCAUGGAAACUAGGGGCACCAUUUCGCUGCCAGUGAAGAAAUGAACAAAGAAAAUCUGGGCCAGGCAGGCAUCAAAAGAAAUAGACUUGCGCUCAACCAGAAAGUCUGUAAUCAUUUUAAGGGUA	0.49
GUUAACGGUCAUAGGCCAUGGAAAUUAGGAGCACCAUUUCGCUGCCAGUGAAGAAAUGAACAAAGAGAAUCUGGGCCAGGCAGGCAUCAAAAGAAAUAGUCUUGCGCUCAACCAGAAAGUCUGUAAUCAUUUUAAGGGUA	1.55
GUUAACGGUCAUAGGCCAUGGAAACUAGGAGCACCAUUUCGCUGCCAGUGAAGAAAUGAACAAAGAAAAUCUGGGCCAGGCAGGCGUCAAAAGAAAUAGUCUUGCGCUCAACCCGAAAGUCUGUAAUCAUUUUAAGGGUA	0.06
GUUAACGGUCAUAGGCCAUGGAAACUAGGAGCACCAUUUCGCUGCCAGUGAAGAAAUGAACAAAGAAAAUCUGGGCCAGGCAGGCAUCAAAAGAAAUAGUCUCUCGCUCAACCAGAAAGUCUGUAAUCAUUUUAAGGGUA	0.03
GUUAACGGUCAUAGGCCAUGGAAACUAGGAGCACCAUUUCGCUGCCAGUGAAGAAAUGAACAAAGAAAAUCUGGGCCAGGCAGGCAUCAAAAGAAUUAGUCUUGCGCUCAACCAGAAAGUCUGUAAUCAUCUUAAGGGUA	2.32
GUUAACGGUCAUAGGCCAUGGAAACUAGGAGCACCAUUUCGCUGCCAGUGAAGAAAUGAACAAGGAAAAUCUGGGCCAGGCAGGCAUCAAAAGAAAUAGUCUAGCGCUCAACCAGAAAGUCUGUAAUCAUUUUAAGGGUA	0.55
GUUAACGGUCAUAGGCCAUGGAAACUAGGAGCACCAUUUCGCUGCCAGUGAAGAAAUGAACAAAGAAAAUCUGGGCCAGGCAGGCAUCAAAAGAAAUAGUCGUGCGCUCAACCAGAAAGACUGUAAUCAUUUUAAGGGUA	0.77
